In assay [1] the test system is panel of 20 biotinylated peptides, each with a different N-terminal residue (X-SDGMFTAGSLIGK(biotin)). Put plainly: Phage ELISA specificity profile over the panel of biotinylated peptides. The format is binding. The settings on record: phage displayed; result in words. The method, then:
(§1) Given the discovery that the specificity pocket library was functionally robust, selections against synthetic peptide ligands were carried out using this library. The specificity pocket library was selected against 20 biotinylated peptides, each with a different N-terminal residue atop a common leader sequence (X-SDGMFTAGSLIGK(biotin)) (SEQ ID NO: 4). The peptides were immobilized individually to the bottom wells of a microtiter plate. […] Consequently, ClpS mutant variants that prefer other residues in addition to the ligand ‘bait’ would bind those competing peptides in solution and simply be washed away. Only selective variants that bound to the immobilized target(s) were amplified during each subsequent round of selection.
To evaluate the specificity and selectivity of individual clones, both wild-type ClpS and the selected variants' binding to each of the biotinylated peptides independently were tested. […]
Promising single clones were picked from the selection pools and their specificity was evaluated using the same panel of biotinylated peptides and various amounts of phage supernatant. […]
(§2) For the ELISA readouts, 100 μl of pH adjusted phage supernatant or polyethylene glycol (PEG) precipitated concentrated phage was added to appropriate wells and allowed to bind for 1 hour at 4° C. […] The reaction was stopped by addition of 90 μl of 1M H3PO4 and the absorbance at A450 nm was read.
A general note: ELISA stands for enzyme-linked immunosorbent assay.

Assay [2] has as its system immobilized biotinylated peptide, N-terminal amino acid P (X-SDGMFTAGSLIGK(biotin)). Put plainly: Phage ELISA, binding to immobilized peptide, N-terminal P. The method, then:
as §1
(§3) To evaluate the specificity and selectivity of individual clones, both wild-type ClpS and the selected variants' binding to each of the biotinylated peptides independently were tested. The same approach was also used to monitor the progress of the selections and to prioritize particular pools of phage for further investigation.
(§4) Promising single clones were picked from the selection pools and their specificity was evaluated using the same panel of biotinylated peptides and various amounts of phage supernatant. […] Accordingly, Variant 1 represents a selective N-terminal amino acid capture probe for tryptophan useful for the sequencing methods described herein. Variant 1 also represents a useful scaffold for performing further generation and selection of variants with desirable properties for use as additional N-terminal amino acid capture probes.
(§5) The selection and ELISA protocols are very similar. Briefly, each well of a 96-well Maxisorp plate was coated overnight at 4° C. with 100 μl of 10 μg/ml neutravidin in PBS, or 1:500 dilution of anti-FLAG antibody. […]
as §2

The test system of assay [3] is immobilized biotinylated peptide, N-terminal amino acid C (X-SDGMFTAGSLIGK(biotin)). Put plainly: Phage ELISA, binding to immobilized peptide, N-terminal C. The protocol: as §1, §3, §4, §5, §2
In assay [4] the test system is immobilized biotinylated peptide, N-terminal amino acid A (X-SDGMFTAGSLIGK(biotin)). Put plainly: Phage ELISA, binding to immobilized peptide, N-terminal A. The method, then: as §1, §3, §4, §5, §2
The test system of a further assay is Leu-peptides. The assay can be described thus: Phage binding to immobilized peptides or control peptides, ELISA (FIG. 6B). The settings on record: negative controls BSA, SA, NA.
Description: Selected peptide ligands during were synthesized with C-terminal biotin-lysine residues. The biotinylated peptides were immobilized on neutravidin-coated wells of a microtiter plate by passive adsorption, alongside additional control proteins.
The ClpS domains were N-terminally FLAG-tagged as shown in FIG. 6A so that display of the recombinant phage coat protein would be detectable (using commercial anti-FLAG antibody), even if the domains were not able to bind ligand. […] The expressed proteins also contained an ST2 secretion signal that is cleaved off and a C-terminal phage coat protein p3 (that is, fused to the C-terminus/residue 106 of E. coli ClpS) as shown in FIG. 6C.
The selection and ELISA protocols are very similar. Briefly, each well of a 96-well Maxisorp plate was coated overnight at 4° C. with 100 μl of 10 μg/ml neutravidin in PBS, or 1:500 dilution of anti-FLAG antibody. Plates were washed three times with PBS+0.50% TWEEN-20 (PT) and blocked for 1 hour at room temperature with 200 ul of PBS+0.5% BSA (PB). Plates were washed again three times with PT. […]
as §2

In assay [5] the test system is immobilized biotinylated peptide, N-terminal amino acid D (X-SDGMFTAGSLIGK(biotin)). Put plainly: Phage ELISA, binding to immobilized peptide, N-terminal D. The protocol:
as §1, §3, §4, §5, §2

B1: ClpS WT: truncated wildtype E. coli ClpS polypeptide, 84 amino acids, SEQ ID NO: 1, displayed on phage (protein, listed as Escherichia coli)
chain: KPPSMYKVILVNDDYTPMEFVIDVLQKFFSYDVERATQLMLAVHYQGKAICGVFTAEVAETKVAMVNKYARENEHPLLCTLEKA
modifications: phage display
With B1, the “binding specificity / preference for N-terminal amino acids” value in assay [1] is recorded as “clear preference for Leu, Tyr, Phe and, more weakly, Trp peptides”. The “phage ELISA binding signal” value in assay [2] (N-terminal P, phage 10X, sub Fab) is −0.07; in assay [2] (N-terminal amino acid P, Table 1) it was −0.07; in assay [3] (N-terminal C, phage 10X, sub Fab) it was −0.23; in assay [3] (N-terminal amino acid C, Table 1), −0.23; in assay [4] (N-terminal A, phage 10X, sub Fab), −0.29; in assay [4] (N-terminal amino acid A, Table 1), −0.29. The “phage ELISA binding signal” value in assay [5] (N-terminal D, phage 10X, sub Fab) was −0.29; in assay [5] (N-terminal amino acid D, Table 1), −0.29. The “binding of phage-displayed ClpS to immobilized peptides” value in the assay with Leu-peptides (listed as ClpS from E. coli) is reported as “binds two of the Leu-peptides specifically, without cross reactivity to any of the negative controls”; with Leu-peptides (listed as ClpS from Escherichia coli), “able to bind its cognate ligand (immobilized Leucine)”.

Source of the values: US11802878B2, “Protein sequencing method and reagents” (The Governing Council of the University of Toronto, priority 2009, dated 2023).
